Assay results reported in publication PMC3420917, “A Combinatorial Amino Acid Code for RNA Recognition by Pentatricopeptide Repeat Proteins” (PLoS Genetics, 2012).

Experiments:
rPPR10 wild-type = biological target: T1, rPPR10 wild-type (maize, UniProt B8Y6I0 96-786); experiment: EMSA; EMSA: radiolabeled RNA 15 pM, protein 0, 5, 10, 20 nM; binding buffer and temperature by reference [12]; protein stock in 400 mM NaCl, 50 mM Tris-HCl pH 7.5, 5; conditions: protein: recombinant; tags: MBP fusion removed by TEV cleavage; label: radiolabeled; single-stranded
T1 sequence: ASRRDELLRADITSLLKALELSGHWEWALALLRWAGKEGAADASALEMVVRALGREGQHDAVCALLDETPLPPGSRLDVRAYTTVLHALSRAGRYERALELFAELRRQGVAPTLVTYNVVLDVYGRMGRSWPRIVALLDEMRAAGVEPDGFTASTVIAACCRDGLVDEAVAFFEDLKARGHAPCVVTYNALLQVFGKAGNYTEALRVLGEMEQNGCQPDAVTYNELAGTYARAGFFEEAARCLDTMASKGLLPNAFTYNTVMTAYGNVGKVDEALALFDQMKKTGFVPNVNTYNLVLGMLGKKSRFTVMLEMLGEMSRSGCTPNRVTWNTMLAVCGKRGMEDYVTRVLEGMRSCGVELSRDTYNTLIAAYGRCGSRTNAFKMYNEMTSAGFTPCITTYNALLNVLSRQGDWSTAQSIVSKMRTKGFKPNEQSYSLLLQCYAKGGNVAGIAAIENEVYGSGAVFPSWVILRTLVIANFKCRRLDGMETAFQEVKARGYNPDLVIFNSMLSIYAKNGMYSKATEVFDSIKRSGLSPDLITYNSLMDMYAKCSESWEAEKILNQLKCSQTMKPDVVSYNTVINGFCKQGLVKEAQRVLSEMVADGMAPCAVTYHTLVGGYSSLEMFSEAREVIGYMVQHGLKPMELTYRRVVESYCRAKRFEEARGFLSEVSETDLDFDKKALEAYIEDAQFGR

PPR10 TD variant [1] = biological target: T2, PPR10 TD variant (maize, UniProt B8Y6I0 96-786, N284T;N319T;N349D); experiment: EMSA; high affinity; EMSA: radiolabeled RNA 15 pM, protein 0, 5, 10, 20 nM; binding buffer and temperature by reference [12]; protein stock in 400 mM NaCl, 50 mM Tris-HCl pH 7.5, 5; conditions: protein: recombinant; tags: MBP fusion removed by TEV cleavage; label: radiolabeled; single-stranded
T2 sequence: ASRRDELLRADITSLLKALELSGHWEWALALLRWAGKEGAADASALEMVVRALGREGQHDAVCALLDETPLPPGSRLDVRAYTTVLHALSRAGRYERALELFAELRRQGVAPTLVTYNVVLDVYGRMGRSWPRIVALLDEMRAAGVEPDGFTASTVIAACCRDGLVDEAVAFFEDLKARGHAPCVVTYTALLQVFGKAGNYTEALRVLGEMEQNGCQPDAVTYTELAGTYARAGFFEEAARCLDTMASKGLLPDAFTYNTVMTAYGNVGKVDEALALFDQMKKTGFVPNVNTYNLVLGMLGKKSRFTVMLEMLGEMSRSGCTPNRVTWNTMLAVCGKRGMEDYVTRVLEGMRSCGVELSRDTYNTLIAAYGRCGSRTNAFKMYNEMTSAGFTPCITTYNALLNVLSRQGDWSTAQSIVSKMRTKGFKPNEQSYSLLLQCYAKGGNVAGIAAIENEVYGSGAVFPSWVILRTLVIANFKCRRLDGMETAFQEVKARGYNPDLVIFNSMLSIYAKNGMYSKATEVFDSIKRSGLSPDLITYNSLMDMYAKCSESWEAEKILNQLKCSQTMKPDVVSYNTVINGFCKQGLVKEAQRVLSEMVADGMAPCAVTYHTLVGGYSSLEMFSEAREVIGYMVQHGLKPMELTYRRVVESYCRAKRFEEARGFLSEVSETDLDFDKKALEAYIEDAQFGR

[2] = biological target: the molecule itself; experiment: AUC; sedimentation velocity; rPPR10 alone at 3, 6 and 12 µM; 20°C, 50,000 rpm, interference optics; 250 mM NaCl, 50 mM Tris-HCl pH 7.5, 5 mM ß-mercaptoethanol; monomer to dimer
PPR10 TD variant [3] = biological target: T2, PPR10 TD variant; experiment: EMSA; EMSA: radiolabeled RNA 15 pM, protein 0, 5, 10, 20 nM; binding buffer and temperature by reference [12]; protein stock in 400 mM NaCl, 50 mM Tris-HCl pH 7.5, 5; conditions: protein: recombinant; tags: MBP fusion removed by TEV cleavage; label: radiolabeled; single-stranded
PPR10 TN variant [4] = biological target: T3, PPR10 TN variant (maize, UniProt B8Y6I0 96-786, N284T;D314N;N319T); experiment: as above; conditions: protein: recombinant; tags: MBP fusion removed by TEV cleavage; label: radiolabeled; single-stranded
T3 sequence: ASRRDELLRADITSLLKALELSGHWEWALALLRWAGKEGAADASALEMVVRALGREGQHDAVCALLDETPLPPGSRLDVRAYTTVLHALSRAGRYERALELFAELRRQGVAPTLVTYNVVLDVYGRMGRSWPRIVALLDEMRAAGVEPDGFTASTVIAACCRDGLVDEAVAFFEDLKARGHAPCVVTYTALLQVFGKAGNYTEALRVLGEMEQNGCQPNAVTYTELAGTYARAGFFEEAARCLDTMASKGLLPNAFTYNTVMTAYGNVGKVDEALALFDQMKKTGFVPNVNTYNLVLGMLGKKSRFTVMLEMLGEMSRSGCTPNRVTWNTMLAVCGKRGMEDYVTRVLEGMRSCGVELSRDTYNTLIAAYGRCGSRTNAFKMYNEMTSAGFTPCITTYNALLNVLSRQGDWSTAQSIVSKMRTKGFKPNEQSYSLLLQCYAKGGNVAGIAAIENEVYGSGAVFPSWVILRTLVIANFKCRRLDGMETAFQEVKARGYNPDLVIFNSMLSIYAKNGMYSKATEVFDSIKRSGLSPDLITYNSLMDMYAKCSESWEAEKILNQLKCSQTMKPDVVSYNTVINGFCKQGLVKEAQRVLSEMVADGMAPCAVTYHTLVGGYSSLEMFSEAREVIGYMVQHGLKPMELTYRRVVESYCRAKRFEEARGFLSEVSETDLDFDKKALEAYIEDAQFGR

PPR10 TN variant [5] = biological target: T3, PPR10 TN variant; experiment: EMSA; high affinity; EMSA: radiolabeled RNA 15 pM, protein 0, 5, 10, 20 nM; binding buffer and temperature by reference [12]; protein stock in 400 mM NaCl, 50 mM Tris-HCl pH 7.5, 5; conditions: protein: recombinant; tags: MBP fusion removed by TEV cleavage; label: radiolabeled; single-stranded

GUAGGCUUAACCAUUUC (ssRNA) [GG RNA]
binding result (rPPR10 wild-type): no binding | binding result (PPR10 TD variant [1]): binds

B1: Recombinant PPR10 (natural protein, maize, UniProt B8Y6I0 96-786, looked up)
chain: ASRRDELLRADITSLLKALELSGHWEWALALLRWAGKEGAADASALEMVVRALGREGQHDAVCALLDETPLPPGSRLDVRAYTTVLHALSRAGRYERALELFAELRRQGVAPTLVTYNVVLDVYGRMGRSWPRIVALLDEMRAAGVEPDGFTASTVIAACCRDGLVDEAVAFFEDLKARGHAPCVVTYNALLQVFGKAGNYTEALRVLGEMEQNGCQPDAVTYNELAGTYARAGFFEEAARCLDTMASKGLLPNAFTYNTVMTAYGNVGKVDEALALFDQMKKTGFVPNVNTYNLVLGMLGKKSRFTVMLEMLGEMSRSGCTPNRVTWNTMLAVCGKRGMEDYVTRVLEGMRSCGVELSRDTYNTLIAAYGRCGSRTNAFKMYNEMTSAGFTPCITTYNALLNVLSRQGDWSTAQSIVSKMRTKGFKPNEQSYSLLLQCYAKGGNVAGIAAIENEVYGSGAVFPSWVILRTLVIANFKCRRLDGMETAFQEVKARGYNPDLVIFNSMLSIYAKNGMYSKATEVFDSIKRSGLSPDLITYNSLMDMYAKCSESWEAEKILNQLKCSQTMKPDVVSYNTVINGFCKQGLVKEAQRVLSEMVADGMAPCAVTYHTLVGGYSSLEMFSEAREVIGYMVQHGLKPMELTYRRVVESYCRAKRFEEARGFLSEVSETDLDFDKKALEAYIEDAQFGR
notes: PPR10, maize chloroplast pentatricopeptide repeat protein (19 PPR motifs); mature PPR10 lacking the plastid targeting peptide; monomeric molecular weight of rPPR10 printed as 82.6 kDa; also called rPPR10
stoichiometry N [2]: 2

GUAUCCUUAACCAUUUC (ssRNA) [wild-type RNA (EMSA)]
binding result (PPR10 TD variant [3]): no binding | binding result (PPR10 TN variant [4]): no binding

GUAAACUUAACCAUUUC (ssRNA) [AA RNA]
binding result (rPPR10 wild-type): no binding | binding result (PPR10 TN variant [5]): binds
